From patent publication US7351689

Molecular target: human IL-28 receptor on transfected 293 HEK cells (IL-28 receptor alpha subunit with endogenous CRF2-4) (human)
Experiment: cell-based or functional assay

Chain of human IL-28 receptor on transfected 293 HEK cells (IL-28 receptor alpha subunit with endogenous CRF2-4) (human) (Q8IU57 21-520): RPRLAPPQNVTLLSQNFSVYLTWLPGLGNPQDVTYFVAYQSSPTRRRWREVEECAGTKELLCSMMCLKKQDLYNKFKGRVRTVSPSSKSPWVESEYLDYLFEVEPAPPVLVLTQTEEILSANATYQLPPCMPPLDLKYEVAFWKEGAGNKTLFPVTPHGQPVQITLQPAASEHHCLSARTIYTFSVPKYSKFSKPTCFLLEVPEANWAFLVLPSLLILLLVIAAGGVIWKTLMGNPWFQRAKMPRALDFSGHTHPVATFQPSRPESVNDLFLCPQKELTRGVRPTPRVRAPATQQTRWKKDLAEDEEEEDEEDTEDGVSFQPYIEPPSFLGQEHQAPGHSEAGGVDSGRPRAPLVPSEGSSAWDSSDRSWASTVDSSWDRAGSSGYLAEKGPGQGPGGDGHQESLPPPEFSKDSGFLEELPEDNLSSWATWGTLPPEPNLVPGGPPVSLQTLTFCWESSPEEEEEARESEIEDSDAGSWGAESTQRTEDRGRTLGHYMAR

ISRE Signaling of Transfected 293 Cells Following Class II Cytokine Stimulation (Fold Induction), ISRE-Luc./IL-28R, HuIL10 100 ng/ml (fold induction)	ISRE Signaling of Transfected 293 Cells Following Class II Cytokine Stimulation (Fold Induction), ISRE-Luc./IL-28R, Zcyto10 125 ng/ml (fold induction)	Substance
0.5		huIL10 (from UniProt P22301 19-178) (ligand)
	1	zcyto10 (from UniProt Q9NYY1 25-176) (ligand)
